US20250145697A1 (WASHINGTON UNIVERSITY, published 2025)
Where a chain is given by its changes, count along the chain named. Each block holds one binder with its values, some of them ahead of it.

Legend:
[1] = molecular target: T1, recombinant alipidated human ApoE2 (human, UniProt P02649 19-317); assay: direct ELISA on coated recombinant alipidated ApoE (0.5 ug/ml)
T1 construct: mature; full length recombinant protein made in E. coli or bought
Experimental: (§1) ELISA dose response curves were generated for several anti-ApoE antibodies. Briefly, plates were coated overnight with full length recombinant alipidated ApoE2, ApoE3, or ApoE4 (0.5 μg/ml). The following days, plates were washed, blocked and then incubated with an anti-ApoE antibody. A goat, anti-mouse IgG-HRP antibody was used for secondary detection. Recombinant alipidated ApoE was either expressed solubly in E. coli and then purified, or purchased from a commercial supplier.

[2] = molecular target: T2, recombinant alipidated human ApoE3 (human, UniProt P02649 19-317); assay: as above
T2 construct: mature; full length recombinant protein made in E. coli or bought
T2 sequence (P02649 19-317): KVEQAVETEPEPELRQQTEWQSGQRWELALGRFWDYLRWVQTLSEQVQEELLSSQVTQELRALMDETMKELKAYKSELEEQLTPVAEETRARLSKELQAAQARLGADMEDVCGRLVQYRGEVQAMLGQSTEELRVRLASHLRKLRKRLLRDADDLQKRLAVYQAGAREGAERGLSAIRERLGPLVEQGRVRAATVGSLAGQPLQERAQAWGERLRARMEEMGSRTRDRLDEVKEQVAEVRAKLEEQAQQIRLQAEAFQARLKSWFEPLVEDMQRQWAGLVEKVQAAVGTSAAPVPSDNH
Experimental: as §1

[3] = molecular target: T3, recombinant alipidated human ApoE4 (human, UniProt P02649 19-317); assay: as above
T3 construct: mature; full length recombinant protein made in E. coli or bought; biotinylated for SPR; position 112 is counted on the mature protein, not on the precursor entry; also called recApoE; non-lipidated ApoE4
Experimental: as §1
Target sequence in this assay (P02649 19-317 C130R): as the sequence (P02649 19-317) above, with C112R counted along it

[4] = molecular target: T3, recombinant alipidated human ApoE4; assay: SPR (Biacore T200), biotinylated ApoE4 captured on anti-biotin mAb chip, antibody injected, 1:1 fit
Experimental: The affinity of several anti-ApoE antibodies for ApoE4 was determined by surface plasmon resonance using a BIAcore T200. Anti-biotin monoclonal mouse antibody was immobilized on a Biacore Series S CM5 sensor chip. Biotinylated recombinant alipidated ApoE4 was then captured on to the chip. Serial dilutions of each antibody were injected at a flow rate of 30 μl/min. Each sample was analyzed, for example, with 3-minute association and 10-minute dissociation. After each injection the chip was regenerated using 3 M MgCl₂ or another appropriate buffer. Binding response was corrected by subtracting the response units (RUs) from a flow cell capturing an irrelevant IgG at similar density. A 1:1 Languir model of simultaneous fitting of Kₒₙ and Koff was used for kinetics analysis. Recombinant alipidated ApoE4 was either expressed in soluble form in E. coli and then purified, or purchased from a commercial supplier.

[5] = molecular target: T4, ApoE4 amino acids 24-164, expressed on yeast (human, UniProt P02649 42-182); assay: yeast display of myc-tagged ApoE4 fragment, antibody staining
T4 construct: with myc tag, on yeast cells; range counts on the mature protein; also called helix1 + 2 + 3 + 4
T4 chain: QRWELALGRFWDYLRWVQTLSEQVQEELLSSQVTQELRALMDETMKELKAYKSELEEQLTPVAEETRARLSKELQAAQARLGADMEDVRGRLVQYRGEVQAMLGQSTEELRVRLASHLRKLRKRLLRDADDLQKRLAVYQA
Experimental: (§2) Epitope binding of various anti-ApoE antibodies was evaluated multiple ways. Different sequences of human ApoE were expressed on the surface of yeast by yeast display using different plasmids. Different anti-ApoE antibodies were then assessed to determine binding to the different ApoE sequences by immunofluorescence of the yeast cell surface (Table 4). Because none of the anti-ApoE antibodies tested here recognize murine ApoE, the epitope was further narrowed down by comparison of the murine and human ApoE sequences as shown in Tables 4 and 5. DNA constructs containing different regions of ApoE4 with myc tag were transformed into yeast cells. Yeast cells were incubated with HJ15x to detect binding or anti-myc antibody to detect expression.

[6] = molecular target: T5, ApoE4 amino acids 1-164, expressed on yeast (human, UniProt P02649 19-182); assay: as above
T5 construct: with myc tag, on yeast cells; range counts on the mature protein; also called up to helix 4; not shown: myc tag and yeast surface-display partner
T5 chain: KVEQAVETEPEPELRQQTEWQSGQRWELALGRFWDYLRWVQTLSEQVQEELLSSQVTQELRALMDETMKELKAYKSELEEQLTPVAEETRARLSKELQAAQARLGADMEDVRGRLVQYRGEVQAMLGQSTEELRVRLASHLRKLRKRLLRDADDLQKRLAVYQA
Experimental: as §2

[7] = molecular target: T6, ApoE4 amino acids 54-164, expressed on yeast (human, UniProt P02649 72-182); assay: as above
T6 construct: with myc tag, on yeast cells; expression in yeast printed as Low; range counts on the mature protein; also called helix2 + 3 + 4
T6 chain: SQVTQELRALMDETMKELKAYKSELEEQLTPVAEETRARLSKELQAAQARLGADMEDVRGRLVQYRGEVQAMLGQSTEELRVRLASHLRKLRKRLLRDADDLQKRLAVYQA
Experimental: as §2

[8] = molecular target: T7, ApoE4 amino acids 1-210, expressed on yeast (human, UniProt P02649 19-228); assay: as above
T7 construct: with myc tag, on yeast cells; range counts on the mature protein; also called N terminal domain; not shown: myc tag and yeast surface-display partner
T7 chain: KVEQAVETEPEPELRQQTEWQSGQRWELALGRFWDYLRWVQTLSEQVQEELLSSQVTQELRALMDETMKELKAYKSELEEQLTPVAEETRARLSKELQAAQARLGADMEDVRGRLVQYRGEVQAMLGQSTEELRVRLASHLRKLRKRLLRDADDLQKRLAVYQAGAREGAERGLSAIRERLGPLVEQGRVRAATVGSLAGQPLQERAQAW
Experimental: as §2

murine ApoE = molecular target: T8, murine ApoE (mouse, UniProt P08226 19-311); assay: Western blot of mouse brain lysates
T8 sequence (looked up): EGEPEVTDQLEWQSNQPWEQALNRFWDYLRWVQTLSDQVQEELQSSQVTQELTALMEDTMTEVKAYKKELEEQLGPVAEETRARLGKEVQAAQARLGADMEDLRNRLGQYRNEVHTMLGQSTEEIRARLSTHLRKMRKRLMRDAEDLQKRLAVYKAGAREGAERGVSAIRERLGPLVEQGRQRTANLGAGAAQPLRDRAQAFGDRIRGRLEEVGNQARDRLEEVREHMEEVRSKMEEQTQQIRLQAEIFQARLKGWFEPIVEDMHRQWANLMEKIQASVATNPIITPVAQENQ
From the text: Brain lysates from apoE KO mice or mice expressing human apoE3, human apoE4 or murine apoE were immunoblotted with HJ151, HJ152, HJ153, and HJ154. A commercial apoE antibody GA-50 was used as a positive control.

- EC50 [1]: 50 pM
- EC50 [2]: 50 pM
- EC50 [3]: 40 pM
B1: HJ1531 (antibody, V domains shown)
VH: EVQFVESGGGLVQPKGSLKLSCAASGFSFNIYAMNWVRQAPGKGLEWVARIRSKSNDYATFYADSVKDRFTISRDDSESMLYLQMNNLKIEDTAMYYCVSPYDGALAYWGQGTSVTVSS
VL: DIQMNQSPSSLFASLGDTITITCHASQNINVWLSWYQQKPGNIPKLLIYKASNLHTGVSSRFSGSGSGTDFTLTINNLQPEDIATYYCQQGQSYPLTFGAGTKLELKR
notes: murine monoclonal antibody from hybridoma

- EC50 [1]: 90 pM
- EC50 [2]: 100 pM
- EC50 [3]: 50 pM
B2: HJ1536 (antibody, V domains shown)
VH: EVQFVESGGGLVQPKGSLKLSCEVSGFSFNTYAMNWVRQAPGKGLEWVARIRNKTNNYATFYADSVKDRFTISRDDSKNTLYLQMNNLKAEDTAMYFCASPYDGSFAYWGQGTLVTVSA
VL: B1 VL with F12S, V31I, S59P, D70G, N76S, N77S, Q92H, A100G, L106I
notes: as for B1

- Kd [4]: 391000 pM
- koff [4]: 0.0074 s⁻¹
- kon [4]: 18900 M⁻¹ s⁻¹
- EC50 [2]: 1900 pM
- EC50 [3]: 320 pM
- binding result [5]: binds
- binding result [6]: binds
- binding result [7]: binds
- binding result [8]: binds
B3: HJ159 (antibody, V domains shown)
VH: QVQLQQSGPDLVKPGASVKISCKASGYTFIDYYINWAKQRPGQGLEWIGWIFPGSGSTYYNEKFKGKATLTVDKSSSTAYMFLSSLTSEDSAVFFCARYYGSSPFAYWGQGTLVTVSA
VL: DVLMTQTPLSLPVSLGDQASISCRSSQNIVYSNGNTYLEWYLQKPGQSPKLLIYKVSNRFSGVPDRFSGSGSGTYFTLKISRVEAEDLGIYYCFQGSHVPYTFGGGTKLEIKR
notes: as for B1

- Kd [4]: 206000 pM
- koff [4]: 0.00946 s⁻¹
- kon [4]: 45900 M⁻¹ s⁻¹
- EC50 [2]: 258 pM
- EC50 [3]: 60 pM
- binding result [5]: binds
- binding result [6]: binds
- binding result [7]: binds
- binding result [8]: binds
B4: HJ1518 (antibody, V domains shown)
VH: B3 VH with D10E, I30S, A37V, T58S, S77R, F82L, F94Y, A118T
VL: B3 VL with T7S, N28S, Y31H, S32R, Y75D, I90V, K112R
notes: as for B1

- Kd [4]: 135000 pM
- koff [4]: 0.000858 s⁻¹
- kon [4]: 6360 M⁻¹ s⁻¹
- EC50 [1]: ~100000 pM
- EC50 [2]: 1260 pM
- EC50 [3]: 460 pM
- binding result [5]: binds
- binding result [6]: binds
- binding result [7]: binds
- binding result [8]: binds
B5: HJ1513 (antibody, V domains shown)
VH: QIQLQQSGPELVKPGASVKISCKASGYTFTDYYINWVRQRPGQGLEWIGWIYPESFNTYYNEKFKGKATLTVDTSSNTAYMQLSSLTSEDSAVYFCARYYVSSPFAYWGQGTLVTVSA
VL: B3 VL with V30I, Y31H, Y41F, Y75D, I90V
notes: as for B1

- binding result (murine ApoE): no binding
- Kd [4]: 249000 pM
- koff [4]: 0.00116 s⁻¹
- kon [4]: 4660 M⁻¹ s⁻¹
- EC50 [2]: 130 pM
- EC50 [3]: 350 pM
- binding result [5]: binds
- binding result [6]: binds
- binding result [7]: binds
- binding result [8]: binds
B6: HJ152 (antibody, V domains shown)
VH: EVKLEESGGGLVQPGGSMKLSCAASGFSFSDAWMDWVRQSPEKGLEWVAEIRNKADNHATFYAESVKGRFTISRDDSKSSVYLQMNSLRAEDSGIYYCLLWDYWGQGTTLTVSS
VL: DIVMSQSPSSLAVSAGEKVTMSCKSSQSLLNSRTRKHFLAWYQQKPGQSPKVLIYWASSRESGVPDRFTGSGSGTDFTLTISSVQAEDLAVYYCKQSCNLPWTFGGGTKLEIKR
notes: murine monoclonal antibody from hybridoma; also called HJ152B (biotinylated)

- Kd [4]: < 781 pM
- koff [4]: < 1e-05 s⁻¹
- kon [4]: 12800 M⁻¹ s⁻¹
- EC50 [1]: ~100000 pM
- EC50 [2]: 230 pM
- EC50 [3]: 40 pM
- binding result [5]: binds
- binding result [6]: binds
- binding result [7]: binds
- binding result [8]: binds
B7: HJ1514 (antibody, V domains shown)
VH: B6 VH with K3N, S28T, F61Y, D75N, A90T, S93T, L99V
VL: B6 VL with S22T, H37N, A40T, Q43R, V52P, T69A, C98Y
notes: as for B1

- EC50 [1]: 70 pM
- EC50 [2]: 90 pM
- EC50 [3]: 60 pM
B8: HJ158 (antibody, V domains shown)
VH: EVQLMESGGDLVKPGGSLELSCTVSGFTFNNYAMSWIRQTPEKRLEWVATISDGGTNTYFPDNVKGRFTISRDNAKSNLYLQMSHLQSEDTAMYYCAREGRGTWFAYWGQGTLVTVSA
VL: DVVMTQTPLSLPVSLGDQASISCRSSQSLVHINGNTYLHWSLQKPGQSPKLLIYKVSNRFSGVPDRFSGSGSGTDFTLKISRVEAEDLGIYFCSQNTHLPLTFGAGTKLELKR
notes: as for B1
